The chains are these.
B2: Outer arm dynein intermediate chain 2 with C-terminal 6xHis (IC2-6xHis) (natural protein, Chlamydomonas reinhardtii, UniProt P27766 1-567, looked up)
chain: MEIYHQYIKLRKQFGRFPKFGDEGSEMLADIRPNEDHGKEYIPRNPVTTVTQCVPEMSEHEANTNAVILVNKAMSHVEGGWPKDVDYTEAEHTIRYRKKVEKDEDYIRTVVQLGSSVEDLIKQNNAVDIYQEYFTNVTMDHTSEAPHVKTVTVFKDPNNIKRSASYVNWHPDGSVPKVVVAYSILQFQQQPAGMPLSSYIWDVNNPNTPEYEMVPTSQICCAKFNLKDNNLVGAGQYNGQLAYFDVRKGNGPVEATPIDISHRDPIYDFAWLQSKTGTECMTVSTDGNVLWWDLRKMNECVENMPLKEKNSETTVGGVCLEYDTNAGPTNFMVGTEQGQIFSCNRKAKNPVDRVKYVLSGHHGPIYGLRRNPFNSKYFLSIGDWTARVWVEDTAVKTPILTTKYHPTYLTGGTWSPSRPGVFFTIKMDGAMDVWDLYYKHNEPTLTVQVSDLALTAFAVQESGGTVAVGTSDGCTSVLQLSTGLSEASPAEKANINAMFERETTREKNLEKAIKEAKVKARKEQGRRDEVKDNVTEEQLKALEDEFFKTTDPAVGGGYGAGEGAAAE

Test [1] deals with T1, Outer dynein arm docking complex subunit DC2 with C-terminal 6xHis (DC2-6xHis) (Chlamydomonas reinhardtii, UniProt A8JF70 1-552).
T1 sequence (looked up): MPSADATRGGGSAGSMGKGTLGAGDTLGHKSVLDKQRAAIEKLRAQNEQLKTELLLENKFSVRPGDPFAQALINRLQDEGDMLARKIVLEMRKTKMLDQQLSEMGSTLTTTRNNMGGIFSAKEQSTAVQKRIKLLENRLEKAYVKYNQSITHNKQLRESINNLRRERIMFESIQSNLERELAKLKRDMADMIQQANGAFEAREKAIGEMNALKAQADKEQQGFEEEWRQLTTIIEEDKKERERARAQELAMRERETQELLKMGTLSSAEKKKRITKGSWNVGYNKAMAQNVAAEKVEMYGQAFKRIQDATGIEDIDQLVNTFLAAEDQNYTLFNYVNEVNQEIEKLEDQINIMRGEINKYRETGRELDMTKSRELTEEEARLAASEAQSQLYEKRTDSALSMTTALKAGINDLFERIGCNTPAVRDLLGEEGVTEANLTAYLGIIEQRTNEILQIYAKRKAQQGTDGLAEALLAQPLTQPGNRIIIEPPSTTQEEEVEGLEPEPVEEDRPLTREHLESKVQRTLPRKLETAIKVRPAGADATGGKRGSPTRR
As to the kind of experiment: pull-down.

For test [2], the target named is T2, Outer arm dynein intermediate chain 1 with N-terminal 6xHis (His-IC1) (Chlamydomonas reinhardtii, UniProt Q39578 1-683).
T2 sequence (looked up): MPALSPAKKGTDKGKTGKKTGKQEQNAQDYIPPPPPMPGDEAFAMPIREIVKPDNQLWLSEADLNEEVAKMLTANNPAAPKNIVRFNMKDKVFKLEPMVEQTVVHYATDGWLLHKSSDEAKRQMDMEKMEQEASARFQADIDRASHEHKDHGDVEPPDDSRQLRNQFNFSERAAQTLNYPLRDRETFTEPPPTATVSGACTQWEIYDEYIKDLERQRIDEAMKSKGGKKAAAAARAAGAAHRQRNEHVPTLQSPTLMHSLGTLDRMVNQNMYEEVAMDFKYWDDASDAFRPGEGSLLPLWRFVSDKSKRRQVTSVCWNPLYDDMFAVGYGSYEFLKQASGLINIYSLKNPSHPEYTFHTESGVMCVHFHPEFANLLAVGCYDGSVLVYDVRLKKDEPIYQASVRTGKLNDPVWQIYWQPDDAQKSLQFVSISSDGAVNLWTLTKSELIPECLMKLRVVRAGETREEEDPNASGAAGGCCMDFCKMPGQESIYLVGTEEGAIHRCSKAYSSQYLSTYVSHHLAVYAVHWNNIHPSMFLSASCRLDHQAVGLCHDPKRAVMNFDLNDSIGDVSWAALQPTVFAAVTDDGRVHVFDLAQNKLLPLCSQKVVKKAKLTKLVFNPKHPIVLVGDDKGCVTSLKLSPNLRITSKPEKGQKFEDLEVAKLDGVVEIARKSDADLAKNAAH
Kind of test: co-IP.

For test [3], the target named is B2. As to the kind of experiment: pull-down.

B1: Outer dynein arm docking complex subunit DC1, not tagged (natural protein)
chain: not shown
With B1, the “stoichiometry N” value in test [1] is 1 DC1:DC2. On to B2, for which, in test [2], the binding result is on record as “binds”.

B3: Outer arm dynein intermediate chain 1 (IC1), not tagged (natural protein, Chlamydomonas reinhardtii, UniProt Q39578 1-683, looked up)
chain: MPALSPAKKGTDKGKTGKKTGKQEQNAQDYIPPPPPMPGDEAFAMPIREIVKPDNQLWLSEADLNEEVAKMLTANNPAAPKNIVRFNMKDKVFKLEPMVEQTVVHYATDGWLLHKSSDEAKRQMDMEKMEQEASARFQADIDRASHEHKDHGDVEPPDDSRQLRNQFNFSERAAQTLNYPLRDRETFTEPPPTATVSGACTQWEIYDEYIKDLERQRIDEAMKSKGGKKAAAAARAAGAAHRQRNEHVPTLQSPTLMHSLGTLDRMVNQNMYEEVAMDFKYWDDASDAFRPGEGSLLPLWRFVSDKSKRRQVTSVCWNPLYDDMFAVGYGSYEFLKQASGLINIYSLKNPSHPEYTFHTESGVMCVHFHPEFANLLAVGCYDGSVLVYDVRLKKDEPIYQASVRTGKLNDPVWQIYWQPDDAQKSLQFVSISSDGAVNLWTLTKSELIPECLMKLRVVRAGETREEEDPNASGAAGGCCMDFCKMPGQESIYLVGTEEGAIHRCSKAYSSQYLSTYVSHHLAVYAVHWNNIHPSMFLSASCRLDHQAVGLCHDPKRAVMNFDLNDSIGDVSWAALQPTVFAAVTDDGRVHVFDLAQNKLLPLCSQKVVKKAKLTKLVFNPKHPIVLVGDDKGCVTSLKLSPNLRITSKPEKGQKFEDLEVAKLDGVVEIARKSDADLAKNAAH
Turning to B3, the “stoichiometry N” value in test [3] is 1 IC1:IC2.
